Four molecules from PMC10502012, “Molecular basis of TASL recruitment by the peptide/histidine transporter 1, PHT1” (Nature Communications, 2023) can be followed below.

The term stoichiometry N denotes a count of units in the complex or per binding partner.

Series [1] concerns the target T1, chicken PHT1 L12A/L13A (purified, deglycosylated, cryo-EM sample) (Gallus gallus (chicken), UniProt A0A8V0ZFZ8;A0A8V0Z8V0, point mutant).
T1 construct: chicken PHT1 (SLC15A4), full length, 581 residues, with L12A and L13A; Residues 19-569 modelled in the map; also called plasma membrane mutant of PHT1; source: Expi293F GnT1-, transiently transfected, Strep-Tactin purified, treated with EndoH, gel filtration
Description: thermal shift (nanoDSF); PHT1 alone against PHT1-Sb27 at 0.4 mg/mL in 50 mM HEPES pH 7.5, 100 mM NaCl, 0.02% DDM/0.004% CHS. The settings on record: both partners purified. Background: Differential scanning fluorimetry follows unfolding on heating by fluorescence.

Series [2] deals with T1, chicken PHT1 L12A/L13A (purified, …). The series can be described thus: cryo-EM structure; PHT1 L12A/L13A with two-fold molar excess of Sb27, EndoH, gel filtration; 10 mM MOPS pH 7.0, 100 mM NaCl, 0.01% DDM/0.002% CHS. The conditions noted are these: both partners purified.
Series [3] addresses chicken PHT1 (purified, wild type) (chicken).

chicken PHT1 (purified, wild type) (chicken), sequence (chain, as listed by the source): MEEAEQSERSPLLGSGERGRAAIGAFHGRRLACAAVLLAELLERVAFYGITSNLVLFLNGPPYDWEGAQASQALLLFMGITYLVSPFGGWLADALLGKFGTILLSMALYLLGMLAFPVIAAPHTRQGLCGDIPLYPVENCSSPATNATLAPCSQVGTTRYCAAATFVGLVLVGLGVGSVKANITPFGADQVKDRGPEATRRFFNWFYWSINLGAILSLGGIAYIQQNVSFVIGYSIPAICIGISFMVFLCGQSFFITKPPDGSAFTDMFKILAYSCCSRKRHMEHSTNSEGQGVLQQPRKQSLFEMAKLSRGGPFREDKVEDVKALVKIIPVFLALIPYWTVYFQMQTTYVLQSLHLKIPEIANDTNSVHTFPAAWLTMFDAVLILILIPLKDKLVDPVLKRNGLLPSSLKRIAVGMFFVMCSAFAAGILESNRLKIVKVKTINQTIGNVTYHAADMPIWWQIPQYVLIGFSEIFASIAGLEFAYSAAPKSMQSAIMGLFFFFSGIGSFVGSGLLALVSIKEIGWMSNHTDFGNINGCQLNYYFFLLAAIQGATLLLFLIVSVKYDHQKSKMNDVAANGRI

B1: sybody 27 (VHH)
VHH: QVQLVESGGGSVQAGGSLRLSCAASGDIETIWYLGWFRQAPGKEREGVAALSTVTGSTYYADSVKGRFTVSLDNAKNTVYLQMNSLKPEDTALYYCAAAYTGWMAPLWQWVYSYWGQGTQVTVSA
notes: synthetic nanobody selected from the sybody libraries; Expressed from the pSBinit plasmid; also called Sb27; Sb27a; source: E. coli MC1061 F-, periplasm, purified (Ni-NTA, gel filtration)
For B1, the “increase of the melting temperature of PHT1” value in series [1] amounted to 6 degrees. Further, the “stoichiometry N” value in series [2] was 2.

B2: 146 (VHH)
VHH: QVQLVESGGGLVQAGGSLRLSCAASGFPVDTTNMHWYRQAPGKEREWVAAIHSSGTYTFYADSVKGRFTISRDNAKNTVYLQMNSLKPEDTAVYYCNVKDKGAHLWWYDYWGQGTQVTVSA
On to B2, for which the binding result in series [3] is on record as “binds”.

B3: 155 (VHH)
VHH: QVQLVESGGGLVQAGGSLRLSCAAGGFPVKTSWMRWYRQAPGKEREWVAAINSTGDWTEYADSVKGRFTISRDNAKNTVYLQMNSLKPEDTAVYYCNVKDYGVQTYYYDYWGQGTQVTVSA
In the case of B3, the binding result in series [3] is given as “binds”.

B4: 143 (VHH)
VHH: QVQLVESGGGLVQAGGSLRLSCAASGFPVYSAVMYWYRQAPGKEREWVASIGSTGQHTYYADSVKGRFTISRDNAKNTVYLQMNSLKPEDTAVYYCNVKDVGEYMYWYDYWGQGTQVTVSA
Regarding B4, in series [3], the binding result is reported as “binds”.
